Measured values from patent US20130028925A1.

Target: HSV-2 glycoprotein E (gE2) as expressed by wild-type HSV-2 strain 2.12 (infected Cos cells; virion envelope) (Herpes Simplex Virus-2) (UniProt P89475)
Assay: rosetting of IgG-coated sheep red blood cells on Cos cells infected with HSV-2 at MOI 2, 12 h; uninfected cells and gE2-deletion virus formed none

Sequence of UniProt P89475 (P89475 21-545 limits assumed): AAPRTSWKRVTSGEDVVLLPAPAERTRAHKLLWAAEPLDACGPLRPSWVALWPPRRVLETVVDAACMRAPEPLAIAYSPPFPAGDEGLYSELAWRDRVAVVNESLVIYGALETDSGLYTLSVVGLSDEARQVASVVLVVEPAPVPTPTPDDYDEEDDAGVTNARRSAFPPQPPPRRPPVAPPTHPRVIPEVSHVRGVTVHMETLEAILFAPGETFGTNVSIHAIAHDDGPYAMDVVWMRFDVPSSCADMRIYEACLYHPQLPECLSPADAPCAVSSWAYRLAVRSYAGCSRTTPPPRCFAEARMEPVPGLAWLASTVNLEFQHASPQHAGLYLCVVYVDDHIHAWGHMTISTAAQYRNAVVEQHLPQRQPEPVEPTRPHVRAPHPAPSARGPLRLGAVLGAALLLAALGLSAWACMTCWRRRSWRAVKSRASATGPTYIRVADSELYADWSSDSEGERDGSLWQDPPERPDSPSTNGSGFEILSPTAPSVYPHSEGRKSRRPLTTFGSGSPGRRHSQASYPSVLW

rabbit anti-sheep IgG on sheep red blood cells (IgG-coated red blood cells) (antibody)
percent of infected cells forming rosettes: 36%
